Source: publication PMC2816219

Target: F-actin (non-muscle human actin, pre-polymerized in vitro) (human) (UniProt P60709)
Experiment: co-sedimentation; constant protein (16 nM GST-ARN127(25), 150 nM GST-Htt exon 1(25)) with increasing F-actin (0-8 µM or 0-16 µM); gels quantified for percent bound; approximate Kd

Substance	Kd
GST-ARN127(25) (from UniProt P10275 1-127) (domain or fragment)	1000 nM
GST-Htt exon 1(25) (domain or fragment)	2000 nM
